Measured values published in patent US11795460B2, “Compositions and methods for TTR gene editing and treating ATTR amyloidosis” (Intellia Therapeutics, Inc., priority 2017, dated 2023).
Strand notation (5' to 3'): a small letter for the sugar, then the base; units joined by * are phosphorothioate-linked, units joined directly phosphodiester-linked; [ ] holds rarer units or linkages, { } end groups; capitals alone tell only the bases. m = 2'-O-methyl; r = 2'-OH (RNA)

Legend:
[1] = tested on: TTR; assay: TTR editing in primary human hepatocytes transfected with Spy Cas9 protein and sgRNAs (Table 12); type: cell-based; settings: primary human hepatocytes transfected with Spy Cas9 protein (RNP) and sgRNAs
Protocol: (§1) Primary liver hepatocytes. Primary human liver hepatocytes (PHH) and primary cynomolgus liver hepatocytes (PCH) (Gibco) were cultured per the manufacturer's protocol (Invitrogen, protocol 11.28.2012). In brief, the cells were thawed and resuspended in hepatocyte thawing medium with supplements (Gibco, Cat. CM7000) followed by centrifugation at 100 g for 10 minutes for human and 80 g for 4 minutes for cyno. The supernatant was discarded and the pelleted cells resuspended in hepatocyte plating medium plus supplement pack (Invitrogen, Cat. A1217601 and CM3000). Cells were counted and plated on Bio-coat collagen I coated 96-well plates (ThermoFisher, Cat. 877272) at a density of 33,000 cells/well for human or 60,000 cells/well for cyno (or 65,000 cells/well when assaying effects on TTR protein, described further below). Plated cells were allowed to settle and adhere for 6 or 24 hours in a tissue culture incubator at 37° C. and 5% CO2 atmosphere. After incubation cells were checked for monolayer formation and media was replaced with hepatocyte culture medium with serum-free supplement pack (Invitrogen, Cat. A1217601 and CM4000).
[…] formation was performed prior to electroporation or transfection of Spy Cas9 protein loaded with guide RNAs (RNPs) onto cells. For dual guide (dgRNAs), individual crRNA and trRNA was pre-annealed by mixing equivalent amounts of reagent and incubating at 95° C. for 2 min and cooling to room temperature. Single guide (sgRNAs) were boiled at 95° C. for 2 min and cooling to room temperature. The boiled dgRNA or sgRNA was incubated with Spy Cas9 protein in Optimem for 10 minutes at room temperature to form a ribonucleoprotein (RNP) complex.
For RNP lipoplex transfections, cells were transfected with Lipofectamine RNAiMAX (ThermoFisher, Cat. 13778150) per the manufacturer's protocol. Cells were transfected with an RNP containing Spy Cas9 (10 nM), individual guide (10 nM), tracer RNA (10 nM), Lipofectamine RNAiMAX (1.0 μL/well) and OptiMem. RNP formation was performed as described above.
Transfected cells were harvested post-transfection at 24, 48, or 72 hours. The genomic DNA was extracted from each well of a 96-well plate using 50 μL/well BuccalAmp DNA Extraction solution (Epicentre, Cat. QE09050) per manufacturer's protocol. All DNA samples were subjected to PCR and subsequent NGS analyses, as described herein.
(§2) To quantitatively determine the efficiency of editing at the target location in the genome, sequencing was utilized to identify the presence of insertions and deletions introduced by gene editing.
(§3) Primers were designed around the target site within the gene of interest (e.g. TTR), and the genomic area of interest was amplified.
(§4) Additional PCR was performed per the manufacturer's protocols (Illumina) to add chemistry for sequencing. The amplicons were sequenced on an Illumina MiSeq instrument. The reads were aligned to a reference genome (e.g., the human reference genome (hg38), the cynomologus reference genome (mf5), the rat reference genome (rn6), or the mouse reference genome (mm10)) after eliminating those having low quality scores. The resulting files containing the reads were mapped to the reference genome (BAM files), where reads that overlapped the target region of interest were selected and the number of wild type reads versus the number of reads which contain an insertion, substitution, or deletion was calculated.
(§5) The editing percentage (e.g., the “editing efficiency” or “percent editing” or “indel frequency”) is defined as the total number of sequence reads with insertions/deletions (“indels”) or substitutions over the total number of sequence reads, including wild type.
Guides in modified sgRNA format targeting human and/or cyno TTR were delivered to primary human hepatocytes and primary cyno hepatocytes as described in Example 1. […]

[2] = tested on: TTR; assay: TTR editing in primary human hepatocytes treated with LNP formulated Spy Cas9 mRNA (SEQ ID NO: 2) and sgRNAs (Table 16); type: cell-based; settings: LNP formulated Spy Cas9 mRNA (SEQ ID NO: 2) and sgRNA, 72 hours
Protocol: as §1
(§6) In general, the lipid nanoparticle components were dissolved in 100% ethanol with the lipid component of various molar ratios. The RNA cargos were dissolved in 25 mM citrate, 100 mM NaCl, pH 5.0, resulting in a concentration of RNA cargo of approximately 0.45 mg/mL. The LNPs were formulated with a lipid amine to RNA phosphate (N:P) molar ratio of about 4.5 or about 6, with the ratio of mRNA to gRNA at 1:1 by weight.
(§7) The LNPs were formed by microfluidic mixing of the lipid and RNA solutions using a Precision Nanosystems NanoAssemblr™ Benchtop Instrument, according to the manufacturer's protocol. A 2:1 ratio of aqueous to organic solvent was maintained during mixing using differential flow rates. After mixing, the LNPs were collected, diluted in water (approximately 1:1 v/v), held for 1 hour at room temperature, and further diluted with water (approximately 1:1 v/v) before final buffer exchange. The final buffer exchange into 50 mM Tris, 45 mM NaCl, 5% (w/v) sucrose, pH 7.5 (TSS) was completed with PD-10 desalting columns (GE). If required, formulations were concentrated by centrifugation with Amicon 100 kDa centrifugal filters (Millipore). The resulting mixture was then filtered using a 0.2 μm sterile filter. The final LNP was stored at −80° C. until further use.
as §2, §3, §4, §5
(§8) Lipid nanoparticle formulations of modified sgRNAs targeting human TTR and the cyno matched sgRNA sequences were tested on primary human hepatocytes and primary cyno hepatocytes in a dose response curve. Primary human and cyno hepatocytes were plated as described in Example 1. […]

[3] = tested on: TTR; assay: TTR editing in primary cyno hepatocytes treated with LNP formulated Spy Cas9 mRNA (SEQ ID NO: 2) and sgRNAs (Tables 17, 18); type: cell-based, cynomolgus monkey; settings: for 12.5 ng mRNA, 3.9 nM sgRNA Avg % Edit: Table 17, LNP formulated Spy Cas9 mRNA (SEQ ID NO: 2) and sgRNA, 72 hours
Protocol: as §1, §6, §7, §2, §3, §4, §5, §8

B1: G000488: TTR sgRNA modified sequence, Human, SEQ ID No. 95; guide sequence of CR003346 (nucleic acid)
guide: mA*mA*mA*rGrUrUrCrUrArGrArUrGrCrUrGrUrCrCrGrGrUrUrUrUrArGrAmGmCmUmAmGmAmAmAmUmAmGmCrArArGrUrUrArArArArUrArArGrGrCrUrArGrUrCrCrGrUrUrArUrCrAmAmCmUmUmGmAmAmAmAmAmGmUmGmGmCmAmCmCmGmAmGmUmCmGmGmUmGmCmU*mU*mU*mU
- Avg % Deletion [1]: 35.00%
- Avg % Edit [1]: 61.27%
- Avg % Insert [1]: 26.30%
- 12.5 ng mRNA, 3.9 nM sgRNA Avg % Edit [2]: 44.80%

B2: G000502: TTR Cyno specific sgRNA modified sequence, SEQ ID No. 114; guide sequence of CR000689; cross homologous between mouse and cyno (nucleic acid)
guide: mA*mC*mA*rCrArArArUrArCrCrArGrUrCrCrArGrCrGrGrUrUrUrUrArGrAmGmCmUmAmGmAmAmAmUmAmGmCrArArGrUrUrArArArArUrArArGrGrCrUrArGrUrCrCrGrUrUrArUrCrAmAmCmUmUmGmAmAmAmAmAmGmUmGmGmCmAmCmCmGmAmGmUmCmGmGmUmGmCmU*mU*mU*mU
- 12.5 ng mRNA, 3.9 nM sgRNA % Edit ([3]; LNP formulated Spy Cas9 mRNA (SEQ ID NO: 2) and cyno matched sgRNAs, 72 hours post treatment): 80.70%

B3: G000486: TTR sgRNA modified sequence, Human, SEQ ID No. 93; guide sequence of CR003339 (nucleic acid)
guide: mA*mC*mA*rCrArArArUrArCrCrArGrUrCrCrArGrCrArGrUrUrUrUrArGrAmGmCmUmAmGmAmAmAmUmAmGmCrArArGrUrUrArArArArUrArArGrGrCrUrArGrUrCrCrGrUrUrArUrCrAmAmCmUmUmGmAmAmAmAmAmGmUmGmGmCmAmCmCmGmAmGmUmCmGmGmUmGmCmU*mU*mU*mU
- Avg % Deletion [1]: 59.93%
- Avg % Edit [1]: 69.73%
- Avg % Insert [1]: 9.83%
- 12.5 ng mRNA, 3.9 nM sgRNA Avg % Edit [2]: 61.33%

B4: G000487: TTR sgRNA modified sequence, Human, SEQ ID No. 94; guide sequence of CR003357 (nucleic acid)
guide: mU*mU*mC*rUrUrUrGrGrCrArArCrUrUrArCrCrCrArGrGrUrUrUrUrArGrAmGmCmUmAmGmAmAmAmUmAmGmCrArArGrUrUrArArArArUrArArGrGrCrUrArGrUrCrCrGrUrUrArUrCrAmAmCmUmUmGmAmAmAmAmAmGmUmGmGmCmAmCmCmGmAmGmUmCmGmGmUmGmCmU*mU*mU*mU
- Avg % Deletion [1]: 2.07%
- Avg % Edit [1]: 67.30%
- Avg % Insert [1]: 65.27%
- 12.5 ng mRNA, 3.9 nM sgRNA Avg % Edit [2]: 17.37%

B5: G000496: TTR sgRNA modified sequence, Human, SEQ ID No. 103; guide sequence of CR005304 (nucleic acid)
guide: mG*mG*mC*rCrGrUrGrCrArUrGrUrGrUrUrCrArGrArArGrUrUrUrUrArGrAmGmCmUmAmGmAmAmAmUmAmGmCrArArGrUrUrArArArArUrArArGrGrCrUrArGrUrCrCrGrUrUrArUrCrAmAmCmUmUmGmAmAmAmAmAmGmUmGmGmCmAmCmCmGmAmGmUmCmGmGmUmGmCmU*mU*mU*mU
- Avg % Deletion [1]: 27.67%
- Avg % Edit [1]: 72.33%
- Avg % Insert [1]: 44.73%
- 12.5 ng mRNA, 3.9 nM sgRNA Avg % Edit [2]: 30.73%

B6: G000567: TTR sgRNA modified sequence, Human, SEQ ID No. 109; guide sequence of CR003352 (nucleic acid)
guide: mG*mA*mA*rArGrGrCrUrGrCrUrGrArUrGrArCrArCrCrGrUrUrUrUrArGrAmGmCmUmAmGmAmAmAmUmAmGmCrArArGrUrUrArArArArUrArArGrGrCrUrArGrUrCrCrGrUrUrArUrCrAmAmCmUmUmGmAmAmAmAmAmGmUmGmGmCmAmCmCmGmAmGmUmCmGmGmUmGmCmU*mU*mU*mU
- 12.5 ng mRNA, 3.9 nM sgRNA Avg % Edit [3]: 0.10%
- 12.5 ng mRNA, 3.9 nM sgRNA Avg % Edit [2]: 48.95%

B7: G000568: TTR sgRNA modified sequence, Human, SEQ ID No. 110; guide sequence of CR003391 (nucleic acid)
guide: mG*mG*mC*rUrGrUrCrGrUrCrArCrCrArArUrCrCrCrArGrUrUrUrUrArGrAmGmCmUmAmGmAmAmAmUmAmGmCrArArGrUrUrArArArArUrArArGrGrCrUrArGrUrCrCrGrUrUrArUrCrAmAmCmUmUmGmAmAmAmAmAmGmUmGmGmCmAmCmCmGmAmGmUmCmGmGmUmGmCmU*mU*mU*mU
- 12.5 ng mRNA, 3.9 nM sgRNA Avg % Edit [3]: 9.25%
- 12.5 ng mRNA, 3.9 nM sgRNA Avg % Edit [2]: 54.60%

B8: G000571: TTR sgRNA modified sequence, Human, SEQ ID No. 112; guide sequence of CR005301 (nucleic acid)
guide: mG*mU*mC*rArCrArGrArArArCrArCrUrCrArCrCrGrUrGrUrUrUrUrArGrAmGmCmUmAmGmAmAmAmUmAmGmCrArArGrUrUrArArArArUrArArGrGrCrUrArGrUrCrCrGrUrUrArUrCrAmAmCmUmUmGmAmAmAmAmAmGmUmGmGmCmAmCmCmGmAmGmUmCmGmGmUmGmCmU*mU*mU*mU
- 12.5 ng mRNA, 3.9 nM sgRNA Avg % Edit [3]: 20.20%
